Laboratory results taken from PMC5983706, “A Rationally Designed Hsp70 Variant Rescues the Aggregation-Associated Toxicity of Human IAPP in Cultured Pancreatic Islet β-Cells” (International Journal of Molecular Sciences, 2018).
Ends that are not written are not given here. FAM = carboxyfluorescein

Biological target: T1, Hsp70 wild type (human Hsp70 1A) (human, UniProt P0DMV8 1-641)
T1 construct: human Hsp70 1A, GenBank entry NP005336; also called Hsp70 WT; heat shock protein 70 kDa
Assay: other fluorescence titration; 0.15 µM FAM-hIAPP with 0 to 36 µM chaperone in 50 mM Tris pH 7.4, 150 mM KCl, 5 mM MgCl2, 1 h at room temperature; FAM fluorescence at 520 nm; one-site binding model
Conditions: both partners purified

T1 sequence (P0DMV8 whole entry): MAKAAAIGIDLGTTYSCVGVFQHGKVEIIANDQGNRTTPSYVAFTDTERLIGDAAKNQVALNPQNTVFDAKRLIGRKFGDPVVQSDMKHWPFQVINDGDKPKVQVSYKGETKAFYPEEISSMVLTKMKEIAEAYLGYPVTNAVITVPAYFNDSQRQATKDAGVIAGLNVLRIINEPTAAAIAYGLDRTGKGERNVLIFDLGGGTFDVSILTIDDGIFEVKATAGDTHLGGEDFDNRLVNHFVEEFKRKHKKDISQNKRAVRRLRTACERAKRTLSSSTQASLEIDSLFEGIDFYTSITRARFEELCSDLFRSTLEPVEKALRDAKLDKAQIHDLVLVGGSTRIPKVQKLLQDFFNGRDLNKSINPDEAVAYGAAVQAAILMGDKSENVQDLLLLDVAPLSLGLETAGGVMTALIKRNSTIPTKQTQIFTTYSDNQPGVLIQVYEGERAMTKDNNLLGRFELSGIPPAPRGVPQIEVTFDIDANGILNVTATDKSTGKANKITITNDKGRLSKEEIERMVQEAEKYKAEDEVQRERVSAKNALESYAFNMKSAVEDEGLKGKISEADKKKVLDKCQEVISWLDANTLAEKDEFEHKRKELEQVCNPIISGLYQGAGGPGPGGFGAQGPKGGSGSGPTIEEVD

B1: FAM-hIAPP (human islet amyloid polypeptide N-terminally labelled with carboxyfluorescein) (peptide, UniProt P10997 34-70, looked up)
peptide: {FAM}-KCNTATCATQRLANFLVHSSNNFGAILSSTNVGSNTY
modifications: ends and bridges not checked
notes: human islet amyloid polypeptide (hIAPP, amylin), the mature hormone cut from its precursor; also called amylin; source: bought: Phoenix Pharmaceuticals
Kd: 2200 ± 300 nM
